The values below come from US20100015644A1.

The target in assay [1] is Fc receptor on NK cells (effector cells of the ADCC assay) (human) (UniProt P08637). The assay is described as follows: cell-based or functional assay.
For another assay, the target named is sCD4 (UniProt P01730). In words: ELISA, plate-bound sCD4 2.0 µg/ml; relative potency from EC50. (In general: An ELISA detects its analyte on a solid surface through an enzyme-linked reagent.)
In assay [2] the target is FcγRIIIaECD176VHis (HEK-293F, prepared as in Example 4) (human) (UniProt P08637). In words: ELISA, plate-bound FcγRIIIa176V; relative potency from EC50.
Assay [3] has the same target. The assay is described as follows: AlphaScreen bridging assay: His-tagged FcγRIIIa176V on Ni-acceptor beads and sCD4-biotine on SA-donor beads; signal needs binding to both.
In assay [4] the target is CD4 on CD4+ T cells (human) (UniProt P01730). In words: cell-based or functional assay.
Assay [5] has as its target FcγRIIIaECD176VHis batch 646-005-EP (CHO-K1SV derived) (human) (UniProt P08637). In words: ELISA; FcγRIIIa176V directly coated or captured by anti-polyhistidine mAb.

Chain of FcγRIIIaECD176VHis (HEK-293F, prepared as in Example 4) (human) (P08637 other isoform, or with tags, fused parts or gaps limits assumed): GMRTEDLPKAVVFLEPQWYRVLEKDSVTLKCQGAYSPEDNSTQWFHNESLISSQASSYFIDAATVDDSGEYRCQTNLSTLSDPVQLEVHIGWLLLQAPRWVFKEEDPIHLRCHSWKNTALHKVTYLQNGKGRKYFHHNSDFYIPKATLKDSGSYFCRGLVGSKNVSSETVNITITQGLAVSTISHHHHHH
Chain of Fc receptor on NK cells (effector cells of the ADCC assay) (human) (P08637 17-254): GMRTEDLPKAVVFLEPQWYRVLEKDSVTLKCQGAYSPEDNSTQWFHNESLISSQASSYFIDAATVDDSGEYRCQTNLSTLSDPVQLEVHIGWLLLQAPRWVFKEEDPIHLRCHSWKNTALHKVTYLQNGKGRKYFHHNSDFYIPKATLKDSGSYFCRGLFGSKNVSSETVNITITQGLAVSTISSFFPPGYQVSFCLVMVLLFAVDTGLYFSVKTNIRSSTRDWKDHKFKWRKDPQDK
Chain of FcγRIIIaECD176VHis batch 646-005-EP (CHO-K1SV derived) (human) (P08637 other isoform, or with tags, fused parts or gaps limits assumed): as the sequence (P08637 other isoform, or with tags, fused parts or gaps limits assumed) above

“zanolimumab mixed batch M50-GMP#3-CD4 (antibody)”: in assay [1], the Relative potency (ADCC), Exp 1 (relative to MRS-CD4-001) was 0.14; the Relative potency (ADCC), Exp 2 (relative to MRS-CD4-001) was 0.64; the Relative potency (ADCC), Exp (third) (relative to MRS-CD4-001) is 0.39; the Relative potency (ADCC), mean (relative to MRS-CD4-001) was determined as 0.39. For the same substance, the Relative potency (ADCC), relative to batch GMP#3 (relative to GMP#3) in assay [1] stood at 0.31. In the assay with sCD4, this substance gave a relative potency (sCD4 binding), Exp 1 (relative to MRS-CD4-001) of 1.03; a relative potency (sCD4 binding), Exp 2 (relative to MRS-CD4-001) of 0.9; a relative potency (sCD4 binding), mean (relative to MRS-CD4-001) of 0.97. In addition, in assay [2], the relative potency (FcγRIIIa176V binding), Exp 1 (relative to MRS-CD4-001) worked out at 0.5; the relative potency (FcγRIIIa176V binding), Exp 2 (relative to MRS-CD4-001) was 0.6; the relative potency (FcγRIIIa176V binding), mean (relative to MRS-CD4-001) was found to be 0.55; the relative potency (FcγRIIIa176V binding), related to parent batch GMP#3 (relative to GMP#3) stood at 0.49.
“zanolimumab batch MOCK-MRS-CD4 (sham-deglycosylated) (antibody)”: the binding capacity (% of the reference batch) (% of reference batch MRS-CD4-001) in assay [3] turned out to be 81.
On to “zanolimumab batch UNG-GMP#3-CD4 (de-glycosylated) (antibody)”, for which, in the assay with sCD4, the relative potency (sCD4 binding), Exp 1 (relative to MRS-CD4-001) is 0.96; the relative potency (sCD4 binding), Exp 2 (relative to MRS-CD4-001) is 1.01; the relative potency (sCD4 binding), mean (relative to MRS-CD4-001) was 0.99.
For the substance “zanolimumab batch MOCK-GMP#3-CD4 (sham-de-glycosylated) (antibody)”, in assay [1], the Relative potency (ADCC), Exp 1 (relative to MRS-CD4-001) amounted to 1.38; the Relative potency (ADCC), Exp 2 (relative to MRS-CD4-001) was 1.55; the Relative potency (ADCC), Exp (third) (relative to MRS-CD4-001) worked out at 1.42; the Relative potency (ADCC), mean (relative to MRS-CD4-001) worked out at 1.45. The Relative potency (ADCC), relative to batch GMP#3 (relative to GMP#3) in assay [1] was found to be 1.17. In the assay with sCD4, this substance yielded a relative potency (sCD4 binding), Exp 1 (relative to MRS-CD4-001) of 0.98; a relative potency (sCD4 binding), Exp 2 (relative to MRS-CD4-001) of 0.85; a relative potency (sCD4 binding), mean (relative to MRS-CD4-001) of 0.92. Further, in assay [2], the relative potency (FcγRIIIa176V binding), Exp 1 (relative to MRS-CD4-001) was 1.23; the relative potency (FcγRIIIa176V binding), Exp 2 (relative to MRS-CD4-001) is 1.23; the relative potency (FcγRIIIa176V binding), mean (relative to MRS-CD4-001) was 1.23; the relative potency (FcγRIIIa176V binding), related to parent batch GMP#3 (relative to GMP#3) was 1.09.
The substance “zanolimumab (batch not stated) (antibody)” yielded a reduction of the level of CD4 expression after 18-24 h (flow cytometry with non-competing anti-CD4) in assay [4] of 50 to 80%.
In assay [3], zanolimumab batch MEV005 (antibody) returned a binding capacity (% of the reference batch) (% of reference batch MRS-CD4-001) of 84.
Regarding “zanolimumab mixed batch M90-MRS-CD4 (antibody)”, in assay [3], the binding capacity (% of the reference batch) (% of reference batch MRS-CD4-001) was 75. In assay [2], this substance gave a relative potency (relative to MRS-CD4-001) of 0.7.
As for HuMax-EGFr (antibody), the EC50 ratio of the two HuMax-EGFr batches in assay [5] was determined as 2.
Take “zanolimumab batch MRS-CD4-001 (antibody)”: in assay [1], the Relative potency (ADCC), Exp 1 (relative to MRS-CD4-001) was 1; the Relative potency (ADCC), Exp 2 (relative to MRS-CD4-001) is 1; the Relative potency (ADCC), Exp (third) (relative to MRS-CD4-001) stood at 1; the Relative potency (ADCC), mean (relative to MRS-CD4-001) is 1. In the assay with sCD4, the relative potency (sCD4 binding), Exp 1 (relative to MRS-CD4-001) is 1; the relative potency (sCD4 binding), Exp 2 (relative to MRS-CD4-001) worked out at 1; the relative potency (sCD4 binding), mean (relative to MRS-CD4-001) was 1. In assay [2], this substance registered a relative potency (FcγRIIIa176V binding), Exp 1 (relative to MRS-CD4-001) of 1; a relative potency (FcγRIIIa176V binding), Exp 2 (relative to MRS-CD4-001) of 1; a relative potency (FcγRIIIa176V binding), mean (relative to MRS-CD4-001) of 1.
In the case of zanolimumab batch BO118 (antibody), the binding capacity (% of the reference batch) (% of reference batch MRS-CD4-001) in assay [3] amounted to 88.
In assay [1], zanolimumab batch GMP#3 (antibody) displayed a Relative potency (ADCC), Exp 1 (relative to MRS-CD4-001) of 0.98; a Relative potency (ADCC), Exp 2 (relative to MRS-CD4-001) of 1.3; a Relative potency (ADCC), Exp (third) (relative to MRS-CD4-001) of 1.45; a Relative potency (ADCC), mean (relative to MRS-CD4-001) of 1.24. Also, in assay [1], the Relative potency (ADCC), relative to batch GMP#3 (relative to GMP#3) was 1. In the assay with sCD4, the relative potency (sCD4 binding), Exp 1 (relative to MRS-CD4-001) was 0.91; the relative potency (sCD4 binding), Exp 2 (relative to MRS-CD4-001) worked out at 0.92; the relative potency (sCD4 binding), mean (relative to MRS-CD4-001) came out at 0.92. For the same substance, in assay [2], the relative potency (FcγRIIIa176V binding), Exp 1 (relative to MRS-CD4-001) was 1.12; the relative potency (FcγRIIIa176V binding), Exp 2 (relative to MRS-CD4-001) was determined as 1.12; the relative potency (FcγRIIIa176V binding), mean (relative to MRS-CD4-001) was found to be 1.12; the relative potency (FcγRIIIa176V binding), related to parent batch GMP#3 (relative to GMP#3) came to 1.
Regarding zanolimumab batch BN078 (antibody), in assay [3], the binding capacity (% of the reference batch) (% of reference batch MRS-CD4-001) was 89.
Regarding “zanolimumab mixed batch M50-MRS-CD4 (antibody)”, in assay [3], the binding capacity (% of the reference batch) (% of reference batch MRS-CD4-001) came to 53.
